Source: patent US20190375786A1, “STABLE PEPTIDES AND METHODS OF USE THEREOF” (Fred Hutchinson Cancer Research Center, priority 2016, published 2019)

Tests used:
[1] = target: trypsin (Sus scrofa, UniProt P00761); test: Trypsin digestion resistance of soluble peptide, RP-HPLC; type: in vitro ADME, porcine; design: purchased Sigma Aldrich 6567; details: 500 U/ml trypsin, 30 minutes at 37.5° C.; HPLC peak vs untreated peptide
Method in brief: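 Read-out was RP-HPLC (C-18, water/acetonitrile with 0.1% TFA, 5-45% over 10 min) of peptide left after trypsin treatment. Digest: 12.5 μg peptide, 500 U/ml porcine trypsin, PBS, 37.5° C for 30 min, stopped by soybean trypsin inhibitor; samples then reduced (10 mM DTT) or left non-reduced.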

[2] = target: pepsin (Sus scrofa, UniProt P00791); test: Pepsin digestion resistance in simulated gastric fluid, RP-HPLC; type: in vitro ADME, porcine; design: purchased Sigma Aldrich P7012; details: 500 U/ml pepsin in SGF pH 1.05, 30 minutes at 37.5° C.; HPLC peak vs untreated peptide
pepsin, sequence (P00791 60-385): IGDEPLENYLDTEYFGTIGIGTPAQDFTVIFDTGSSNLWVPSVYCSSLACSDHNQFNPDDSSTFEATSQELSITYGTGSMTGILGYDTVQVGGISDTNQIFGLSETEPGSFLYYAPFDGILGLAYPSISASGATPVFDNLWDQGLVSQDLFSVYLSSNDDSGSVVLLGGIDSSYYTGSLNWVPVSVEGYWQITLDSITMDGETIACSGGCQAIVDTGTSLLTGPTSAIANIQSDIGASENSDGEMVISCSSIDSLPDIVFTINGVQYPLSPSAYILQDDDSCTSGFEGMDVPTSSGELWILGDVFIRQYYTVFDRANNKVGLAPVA
Method in brief: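 Digestion resistance read by reversed-phase HPLC (C-18, 0.1% TFA, 5–45% acetonitrile over 10 min; 214/280 nm) after 12.5 μg peptide spent 30 min at 37.5 °C in pH 1.05 simulated gastric fluid, with or without 500 U/ml pepsin. Some samples quenched with Tris base and DTT.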

[3] = Resistance to elevated temperature, HPLC; type: physicochemical; details: HPLC peak vs untreated peptide; for Resistance to Temperature (70° C.): 70° C. for one hour; for Resistance to Temperature (75° C.): 75° C. for one hour; for Resistance to Temperature (100° C.): 100° C. for one hour
Method in brief: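 Peptides were incubated at room temperature, 70° C or 100° C for one hour in ddH2O; another protocol used 70° C, 75° C or 100° C for one hour in 0.5 mM PBS, then pelleting and analysis of the supernatant. Remaining peptide was measured by C-18 RP-HPLC, 5–45% acetonitrile/0.1% TFA over 10 min.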

[4] = Resistance to reduction by DTT, RP-HPLC; type: physicochemical; details: 10 mM DTT in PBS, room temperature, 30 minutes; HPLC peak vs untreated peptide
Method in brief: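 Peptide (12.5 μg from a 2 mg/ml stock, or 0.015 mM final in PBS) was held 30 min at room temperature with or without 10 mM DTT. Reduced and non-reduced forms were compared by C-18 RP-HPLC using a 5–45% acetonitrile/0.1% TFA gradient over 10 min, with detection at 214 and 280 nm.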

trypsin, sequence (P00761 9-231): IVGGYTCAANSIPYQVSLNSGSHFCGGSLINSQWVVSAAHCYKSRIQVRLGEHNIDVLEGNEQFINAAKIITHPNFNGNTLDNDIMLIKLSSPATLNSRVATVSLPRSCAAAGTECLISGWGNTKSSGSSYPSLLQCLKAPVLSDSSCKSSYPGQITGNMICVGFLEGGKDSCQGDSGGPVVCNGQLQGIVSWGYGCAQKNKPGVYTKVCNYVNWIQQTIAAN

Substance | Resistance to Trypsin (500 U/ml) [1] | Resistance to Pepsin (500 U/ml) [2] | Resistance to Temperature (70° C.) [3] | Resistance to Temperature (75° C.) [3] | Resistance to Temperature (100° C.) [3] | Resistance to DTT Reduction (10 mM) [4]
25 (GSACLAEYQKCEGSTVPCCPGLSCSAGRFRKTKLCTK) [compound 25] | Low (A peptide classified as low indicates that the majority (over 75%) of the HPLC peak of the treated peptide disappeared as compared to the HPLC peak of the untreated peptide) | High (A peptide classified as high indicates that the majority (at least 75%) of the HPLC peak of the treated peptide is still present as compared to the HPLC peak of the untreated peptide) | High (A peptide classified as high indicates that the majority (at least 75%) of the HPLC peak of the treated peptide is still present as compared to the HPLC peak of the untreated peptide) | High (A peptide classified as high indicates that the majority (at least 75%) of the HPLC peak of the treated peptide is still present as compared to the HPLC peak of the untreated peptide) | Low (A peptide classified as low indicates that the majority (over 75%) of the HPLC peak of the treated peptide disappeared as compared to the HPLC peak of the untreated peptide) | Low (A peptide classified as low indicates that the majority (over 75%) of the HPLC peak of the treated peptide disappeared as compared to the HPLC peak of the untreated peptide)
32 (GSSCAKPRENCNRMNILCCRGECVCPTFGDCFCYGD) [compound 32] | Low (A peptide classified as low indicates that the majority (over 75%) of the HPLC peak of the treated peptide disappeared as compared to the HPLC peak of the untreated peptide) | High (A peptide classified as high indicates that the majority (at least 75%) of the HPLC peak of the treated peptide is still present as compared to the HPLC peak of the untreated peptide) | High (A peptide classified as high indicates that the majority (at least 75%) of the HPLC peak of the treated peptide is still present as compared to the HPLC peak of the untreated peptide) | High (A peptide classified as high indicates that the majority (at least 75%) of the HPLC peak of the treated peptide is still present as compared to the HPLC peak of the untreated peptide) | High (A peptide classified as high indicates that the majority (at least 75%) of the HPLC peak of the treated peptide is still present as compared to the HPLC peak of the untreated peptide) | Low (A peptide classified as low indicates that the majority (over 75%) of the HPLC peak of the treated peptide disappeared as compared to the HPLC peak of the untreated peptide)
34 (GSGCFGYKCDYYKGCCSGYVCSPTWKWCVRPGPGR) [compound 34] | Low (A peptide classified as low indicates that the majority (over 75%) of the HPLC peak of the treated peptide disappeared as compared to the HPLC peak of the untreated peptide) | Low (A peptide classified as low indicates that the majority (over 75%) of the HPLC peak of the treated peptide disappeared as compared to the HPLC peak of the untreated peptide) |  | High (A peptide classified as high indicates that the majority (at least 75%) of the HPLC peak of the treated peptide is still present as compared to the HPLC peak of the untreated peptide) | Low (A peptide classified as low indicates that the majority (over 75%) of the HPLC peak of the treated peptide disappeared as compared to the HPLC peak of the untreated peptide) | Low (A peptide classified as low indicates that the majority (over 75%) of the HPLC peak of the treated peptide disappeared as compared to the HPLC peak of the untreated peptide)
46 (GSDCKYKFENWGACDGGTGTKVRQGTLKKARYNAQCQETIRVTKPC) [compound 46] | Low (A peptide classified as low indicates that the majority (over 75%) of the HPLC peak of the treated peptide disappeared as compared to the HPLC peak of the untreated peptide) | Low (A peptide classified as low indicates that the majority (over 75%) of the HPLC peak of the treated peptide disappeared as compared to the HPLC peak of the untreated peptide) |  | High (A peptide classified as high indicates that the majority (at least 75%) of the HPLC peak of the treated peptide is still present as compared to the HPLC peak of the untreated peptide) | Low (A peptide classified as low indicates that the majority (over 75%) of the HPLC peak of the treated peptide disappeared as compared to the HPLC peak of the untreated peptide) | Low (A peptide classified as low indicates that the majority (over 75%) of the HPLC peak of the treated peptide disappeared as compared to the HPLC peak of the untreated peptide)
47 (GSAQEPVKGPVSTKPGSCPIILIRCAMLNPPNRCLKDTDCPGIKKCCEGSCGMACFVPQ) [compound 47] | Low (A peptide classified as low indicates that the majority (over 75%) of the HPLC peak of the treated peptide disappeared as compared to the HPLC peak of the untreated peptide) | Low (A peptide classified as low indicates that the majority (over 75%) of the HPLC peak of the treated peptide disappeared as compared to the HPLC peak of the untreated peptide) |  | High (A peptide classified as high indicates that the majority (at least 75%) of the HPLC peak of the treated peptide is still present as compared to the HPLC peak of the untreated peptide) | Low (A peptide classified as low indicates that the majority (over 75%) of the HPLC peak of the treated peptide disappeared as compared to the HPLC peak of the untreated peptide) | Low (A peptide classified as low indicates that the majority (over 75%) of the HPLC peak of the treated peptide disappeared as compared to the HPLC peak of the untreated peptide)
48 (GSGIGDPVTCLKSGAICHPVFCPRRYKQIGTCGLPGTKCCKKP) [compound 48] | Low (A peptide classified as low indicates that the majority (over 75%) of the HPLC peak of the treated peptide disappeared as compared to the HPLC peak of the untreated peptide) | High (A peptide classified as high indicates that the majority (at least 75%) of the HPLC peak of the treated peptide is still present as compared to the HPLC peak of the untreated peptide) |  | High (A peptide classified as high indicates that the majority (at least 75%) of the HPLC peak of the treated peptide is still present as compared to the HPLC peak of the untreated peptide) | High (A peptide classified as high indicates that the majority (at least 75%) of the HPLC peak of the treated peptide is still present as compared to the HPLC peak of the untreated peptide) | Low (A peptide classified as low indicates that the majority (over 75%) of the HPLC peak of the treated peptide disappeared as compared to the HPLC peak of the untreated peptide)
49 (GSSFGLCRLRRGFCARGRCRFPSIPIGRCSRFVQCCRRVW) [compound 49] | Low (A peptide classified as low indicates that the majority (over 75%) of the HPLC peak of the treated peptide disappeared as compared to the HPLC peak of the untreated peptide) | High (A peptide classified as high indicates that the majority (at least 75%) of the HPLC peak of the treated peptide is still present as compared to the HPLC peak of the untreated peptide) |  | High (A peptide classified as high indicates that the majority (at least 75%) of the HPLC peak of the treated peptide is still present as compared to the HPLC peak of the untreated peptide) | Low (A peptide classified as low indicates that the majority (over 75%) of the HPLC peak of the treated peptide disappeared as compared to the HPLC peak of the untreated peptide) | Low (A peptide classified as low indicates that the majority (over 75%) of the HPLC peak of the treated peptide disappeared as compared to the HPLC peak of the untreated peptide)
50 (GSLFCKGGSCHFGGCPSHLIKVGSCFGFRSCCKWPWNA) [compound 50] | Low (A peptide classified as low indicates that the majority (over 75%) of the HPLC peak of the treated peptide disappeared as compared to the HPLC peak of the untreated peptide) | Low (A peptide classified as low indicates that the majority (over 75%) of the HPLC peak of the treated peptide disappeared as compared to the HPLC peak of the untreated peptide) |  | High (A peptide classified as high indicates that the majority (at least 75%) of the HPLC peak of the treated peptide is still present as compared to the HPLC peak of the untreated peptide) | Low (A peptide classified as low indicates that the majority (over 75%) of the HPLC peak of the treated peptide disappeared as compared to the HPLC peak of the untreated peptide) | Low (A peptide classified as low indicates that the majority (over 75%) of the HPLC peak of the treated peptide disappeared as compared to the HPLC peak of the untreated peptide)
